Substrate: CCCCCCCCCCCCCCCC(=O)SCCNC(=O)CCNC(=O)[C@H](O)C(C)(C)COP(=O)(O)OP(=O)(O)OC[C@H]1O[C@@H](n2cnc3c(N)ncnc32)[C@H](O)[C@@H]1OP(=O)(O)O
Test: purified protein
Format: biochemical, Escherichia coli
Settings: 50 mM potassium phosphate pH 7.0, 80 ug/mL BSA, 0.1 mM DTNB, 3.1 x 10^-5 mM enzyme, 0-24 uM palmitoyl-CoA

B1: 'TesA (leader sequence-deleted acyl-CoA thioesterase I) (Escherichia coli K-12) (protein)
chain: ADTLLILGDSLSAGYRMSASAAWPALLNDKWQSKTSVVNASISGDTSQQGLARLPALLKQHQPRWVLVELGGNDGLRGFQPQQTEQTLRQILQDVKAANAEPLLMQIRLPANYGRRYNEAFSAIYPKLAKEFDVPLLPFFMEEVYLKPQWMQDDGIHPNRDAQPFIADWMAKQLQPLVNHDS
notes: signal peptide removed (leaderless), C-terminal (His)6 tag from pET28a (NcoI/XhoI), kept; expressed in E. coli BL21(DE3), Ni-NTA purified
Q: Which results are given for B1?
A: Km: 6.69 µM; kcat: 20.75 s⁻¹

B2: 'TesA (leader sequence-deleted acyl-CoA thioesterase I) (Escherichia coli K-12; R90C) (protein)
chain: ADTLLILGDSLSAGYRMSASAAWPALLNDKWQSKTSVVNASISGDTSQQGLARLPALLKQHQPCWVLVELGGNDGLRGFQPQQTEQTLRQILQDVKAANAEPLLMQIRLPANYGRRYNEAFSAIYPKLAKEFDVPLLPFFMEEVYLKPQWMQDDGIHPNRDAQPFIADWMAKQLQPLVNHDS
notes: as for B1
Q: Which results are given for B2?
A: Km: 4.00 µM; kcat: 27.12 s⁻¹

Reference: paper PMC5053343, “Improvement of free fatty acid production using a mutant acyl-CoA thioesterase I with high specific activity in Escherichia coli” (Biotechnology for Biofuels, 2016)
